Results as given in paper PMC6128652, “Structure of the Cladosporium fulvum Avr4 effector in complex with (GlcNAc)6 reveals the ligand-binding mechanism and uncouples its intrinsic function from recognition by the Cf-4 resistance protein” (PLoS Pathogens, 2018).
Substitutions are numbered along the chain they refer to. “Also recorded” adds a separate entry of the source.

B1: D102A (protein)
chain: KAPKTQPYNPCKPQEVIDTKCMGPKDCLYPNPDSCTTYIQCVPLDEVGNAKPVVKPCPKGLQWNDNVGKKWCAYPNLSTCPVKTPQ
modifications: left off: 6x His (two), N-terminal, state not stated
B2: N95A (protein)
chain: B1 chain with N66A, A73D
modifications: left off: 6x His (two), N-terminal, state not stated
B3: D94A (protein)
chain: B1 chain with D65A, A73D
modifications: left off: 6x His (two), N-terminal, state not stated
B4: N93A (protein)
chain: B1 chain with N64A, A73D
modifications: left off: 6x His (two), N-terminal, state not stated
B5: M51A (protein)
chain: B1 chain with M22A, A73D
modifications: left off: 6x His (two), N-terminal, state not stated
B6: P53A (protein)
chain: B1 chain with P24A, A73D
modifications: left off: 6x His (two), N-terminal, state not stated
B7: Y103F (protein)
chain: B1 chain with A73D, Y74F
modifications: left off: 6x His (two), N-terminal, state not stated
B8: Y67F (protein)
chain: B1 chain with Y38F, A73D
modifications: left off: 6x His (two), N-terminal, state not stated
B9: P87A (protein)
chain: B1 chain with P58A, A73D
modifications: left off: 6x His (two), N-terminal, state not stated

tested on: germlings of Trichoderma viride; assay: In vitro protection assay of T. viride germlings against chitinases; type: cell-based; conditions: 5 μM protein with chitinases and β-1,3-glucanases, 6–8 h
Description: The ability of the WT-CfAvr4 and of ChBD mutants to protect against chitinases was evaluated in in vitro protection assays conducted as described before. Briefly, spores of T. viride (3∙10^3) were pre-germinated overnight at room temperature in 100 μl of half-strength PDB medium in 96 well plates. The following day, 5 μM of WT-CfAvr4 or ChBD mutants were mixed with 7.5 units of Zymolyase (Zymo Research cat. no. E1004) and 0.2 units of bacterial chitinases (Sigma-Aldrich cat. no. C6137) and the mixture was added to the microtitre plate wells containing the pre-germinated spores in a final volume of 150 μl. Plates were incubated at 25°C for 6–8 h before evaluating under the microscope fungal growth and the ability of the proteins to provide protection against chitinases. Zymolase has β-1,3 glucanase and β-1,3-glucan laminaripentaohydrolase activity and is added to the mixture in order to remove the surface glucans from the fungal cell wall and thus expose the underlying chitin layer.

Row | Molecule | protection of fungal hyphae against chitinases, fungal growth
1 | B1 | essentially failed to protect the fungal hyphae against chitinases; also recorded: fail to protect the fungal hyphae

tested on: not listed separately; assay: Isothermal titration calorimetry (ITC) of CfAvr4 variants with chitin hexasaccharide; type: binding; conditions: ITC, (GlcNAc)6
Description: A stock solution of the monomer of N-acetylglucosamine was prepared by dissolving the dry powder in a buffer containing 10 mM Bis-Tris, pH 6.5, 100 mM NaCl to a concentration of 0.100 g/L using analytic techniques. Standard solution of 0, 0.010, 0.025, 0.050, 0.075 g/L were prepared by serial dilutions. Using glass test tubes and pipets, 100 μL of each standard was mixed with 300μL of concentrated sulfuric acid and vortexed for 10 sec to mix. Solutions were incubated at RT for 10 min and then placed on ice to stop the reaction. […] Analytically prepared solution of the di- and tri-saccharide scaled linearly to the calibration curve. To determine the concentration of the chitin hexasaccharide solutions used in ITC, the solutions were diluted into the dynamic range of the calibration curve (S12 Fig) and subjected to the above procedure.
All ITC experiments were performed on a TA Instruments low volume NanoITC with a 186uL reaction cell and a reference cell filled with degassed Milli-Q grade water. Reactions were run in a buffer containing 10mM Bis-Tris, pH 6.5, 100 mM NaCl. The reservoir solution was filled with protein solution and continuously stirred while Chitin hexasaccharide solutions titrated in 2.5μL aliquots for 19 injections, with an initial 1μL injection, for a total injection volume of 48.5μL. The carbohydrate solutions were made by dissolving the dry powder in buffer to a concentration of 20mM (confirmed using methods described above) and then diluted to the working concentration using the final buffer exchange flow through to match the buffers as closely as possible. The integrated heats, after correction for the heat of dilution were analyzed using the NanoAnalyze software from […]. An individual binding site model was used to fit the binding isotherm. All experiments were replicated a minimum of three times.

Row | Molecule | increase in the Kd relative to WT-CfAvr4
2 | B2 | three
3 | B3 | five
4 | B4 | six

same assay, conditions: ITC, compared with WT-CfAvr4

Row | Molecule | effect of the mutation on binding to (GlcNAc)6
5 | B1 | abolished all detectable binding
6 | B5 | did not affect the Kd substantially
7 | B6 | did not affect the Kd substantially
8 | B7 | did not affect the Kd substantially
9 | B8 | did not affect the Kd substantially
10 | B9 | did not affect the Kd substantially; also recorded: does not have an effect on the binding thermodynamics

tested on: Cf-4 immune receptor; assay: Pure protein infiltrations into tomato leaves of cv Purdue 135 (+ Cf-4), hypersensitive response; type: in vivo; conditions: 5 μg/ml, 5 dpi
Text: Tomato seeds were obtained from the Tomato Genetic Resource Center (TGRC) at UC Davis. WT-CfAvr4 and mutants thereof with single point mutations at selected amino acids were produced and purified from E. coli Rosetta-gami B cells as description above. […]

Row | Molecule | Cf-4-mediated HR after protein infiltration
11 | B1 | weak HR response

same assay, conditions: 10 μg/ml, 5 dpi

Row | Molecule | Cf-4-mediated HR after protein infiltration
12 | B1 | elicited an HR

same assay, conditions: both 5 μg/ml and 10 μg/ml, 5 dpi

Row | Molecule | Cf-4-mediated HR after protein infiltration
13 | B1 | only partially trigger an HR
14 | B2 | strong and equal in intensity HR; also recorded: strong and equally in intensity necrosis
15 | B5 | strong and equal in intensity HR; also recorded: strong and equally in intensity necrosis
16 | B6 | strong and equal in intensity HR; also recorded: strong and equally in intensity necrosis
17 | B7 | strong and equal in intensity HR; also recorded: strong and equally in intensity necrosis
18 | B8 | strong and equal in intensity HR; also recorded: strong and equally in intensity necrosis
19 | B9 | strong and equal in intensity HR; also recorded: strong and equally in intensity necrosis
20 | B3 | failed to elicit an HR; also recorded: do not; also recorded: did not elicit an HR
21 | B4 | failed to elicit an HR; also recorded: do not; also recorded: did not elicit an HR

tested on: Cf-4; assay: Agrobacterium tumefaciens transient transformation assay (ATTA): co-expression with Cf-4 in Nicotiana benthamiana leaves; type: in vivo; conditions: N. benthamiana, three cell density ratios 0.5:1, 1:1, 2:1
Description: The Agrobacterium tumefaciens transient transformation assay (ATTA) was used for the transient co-expression into leaves of Nicotiana benthamiana of Cf-4 with the WT-CfAvr4 and the mutants thereof tested in this study. Briefly, N. benthamiana plants were grown in a growth chamber with 16 h of artificial light and 70% humidity, at 25°C for 4 weeks. The true mature form of the WT-CfAvr4 (i.e. between Lys30-Gln115) and of the mutants thereof were singly cloned into the binary expression vector pICH47742 downstream of the PR1A signal sequence of Nicotiana tabacum for targeted secretion into the apoplast, and under the control of CaMV 35S promoter and NOS terminator. The tomato Cf-4 was cloned into pMOG800 as descripted before. Binary vector plasmids were transformed into A. tumefaciens strain GV3101 by electroporation. For the ATTA assay, agrobacteria transformed with pMOG800:Cf-4 was grown in 10mL LB-mannitol medium (LB medium with 10 g/L mannitol) amended with 50 μg/mL kanamycin and 25 μg/mL rifampicin, whereas agrobacteria transformed with pICH47742:WT-CfAvr4 or pICH4774:CfAvr4-mutants were grown in LB-mannitol amended with 100 μg/mL carbenicillin and 25 μg/mL rifampicin. All cultures were incubated at 28°C for 2 days, after which period they were pelleted at 2800g for 15 min, re-suspended in MMAi medium (5 g/L Murashige and Skoog basal salts, 20 g/L sucrose, 10 mM MES, and […]) at an optical cell density (A600) of 2.0, and further incubated for 2–4 h at room temperature. Agroinfiltrations were performed by mixing agrobacteria containing pMOG800:Cf-4 with agrobacteria containing pICH47742_WT-CfAvr4 or pICH47742:CfAvr4-mutants at three different ratios of optical cell densities, i.e. A6000.5:A6001.0, A6000.5:A6000.5, and A6000.5:A6000.25 of. The mixture of agrobacteria was infiltrated into the leaves of N. benthamiana plants using a 1 mL syringe and the induction of an HR in the infiltrated leaf sectors was evaluated at 5 days post-infiltrations. Control infiltrations were made using only the pMOG800:Cf-4 transformed agrobacteria and the agrobacteria containing pICH47742:CfAvr4 or the mutants thereof without mixing the two cultures, at cell densities of A6000.25, A6000.5, and A6001.0.

Row | Molecule | HR on transient co-expression with Cf-4
22 | B1 | strong and similar in intensity HR
23 | B2 | strong and similar in intensity HR
24 | B5 | strong and similar in intensity HR
25 | B6 | strong and similar in intensity HR
26 | B7 | strong and similar in intensity HR
27 | B8 | strong and similar in intensity HR
28 | B9 | strong and similar in intensity HR
29 | B3 | strong and similar in intensity HR
30 | B4 | strong and similar in intensity HR

tested on: subtilisin; assay: Subtilisin treatment (resistance against proteolytic degradation); type: in vitro ADME; design: key to Stability (Subtilisin assay): S: stable; PU: partially unstable; conditions: 500 ng/μL subtilisin, 30 min, room temperature
Description: The WT-CfAvr4 and selected mutants thereof were exposed to the non-specific protease subtilisin in order to determine their resistance against proteolytic degradation. Treatments with subtilisin were made as previously described with minor modifications. Briefly, 40 μM of the E. coli-produced CfAvr4 and the selected CfAvr4 mutants were mixed with 10 mM of calcium chloride and 500 ng/μL of subtilisin (Sigma-Aldrich) in a total volume of 15 μL. Samples were incubated for 30 min at room temperature, after which period they were denatured by mixing with 10 mM PMSF and SDS-PAGE loading buffer, and heating at 98°C for 10 min. Digestion products were visualized on an SDS-PAGE after staining with Coomassie blue.

Row | Molecule | Stability (Subtilisin assay)
31 | B1 | PU
32 | B3 | PU
33 | B4 | PU

same assay, conditions: 500 ng/μl subtilisin, band of mature CfAvr4 on SDS-PAGE

Row | Molecule | susceptibility to proteolytic degradation by subtilisin
34 | B1 | vulnerable to proteolytic degradation; also recorded: decreased intensity of this band
35 | B3 | more susceptible to degradation; also recorded: almost complete disappearance of the band
36 | B4 | more susceptible to degradation; also recorded: almost complete disappearance of the band
